Laboratory results taken from the supplement of paper PMC11136658.

Test system: peptide library, one residue held at a place counted from the Y acceptor
Test: relative phosphorylation of the sub-library (ratio to the mean residue at this position); higher = residue favoured
Method in brief: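 Within 384-well plates, purified recombinant kinases phosphorylated biotinylated Tyr-centred peptide library mixtures over 90 min using 50 μM ATP spiked with γ-32P-ATP; each mixture fixed one residue at one position from −5 to +5. Streptavidin membrane capture, rinsing, phosphorimaging and ImageQuant gave the intensities. These were normalized per position to the sum of the 18 randomized residues (16 for the Ser/Thr-free library) and multiplied by that number.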

Sequence of FGFR2, construct: aa285-end, human (P21802 285-821, looked up): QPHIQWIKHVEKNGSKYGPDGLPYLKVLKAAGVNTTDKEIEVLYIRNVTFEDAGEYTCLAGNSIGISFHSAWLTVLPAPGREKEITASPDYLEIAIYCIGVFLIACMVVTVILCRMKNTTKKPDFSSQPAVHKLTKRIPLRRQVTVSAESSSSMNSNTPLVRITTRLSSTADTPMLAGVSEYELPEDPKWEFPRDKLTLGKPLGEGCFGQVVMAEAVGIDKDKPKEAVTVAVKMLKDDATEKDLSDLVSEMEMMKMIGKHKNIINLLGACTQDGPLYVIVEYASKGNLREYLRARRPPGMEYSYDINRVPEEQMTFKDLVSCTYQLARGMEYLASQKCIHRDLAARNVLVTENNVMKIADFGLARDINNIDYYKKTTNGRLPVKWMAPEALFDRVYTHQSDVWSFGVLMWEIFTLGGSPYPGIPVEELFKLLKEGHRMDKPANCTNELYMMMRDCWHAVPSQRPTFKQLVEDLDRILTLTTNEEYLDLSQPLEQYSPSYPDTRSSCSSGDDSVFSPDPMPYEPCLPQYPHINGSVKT
Sequence of FGFR1, construct: aa456-765, human (P11362 456-765, looked up): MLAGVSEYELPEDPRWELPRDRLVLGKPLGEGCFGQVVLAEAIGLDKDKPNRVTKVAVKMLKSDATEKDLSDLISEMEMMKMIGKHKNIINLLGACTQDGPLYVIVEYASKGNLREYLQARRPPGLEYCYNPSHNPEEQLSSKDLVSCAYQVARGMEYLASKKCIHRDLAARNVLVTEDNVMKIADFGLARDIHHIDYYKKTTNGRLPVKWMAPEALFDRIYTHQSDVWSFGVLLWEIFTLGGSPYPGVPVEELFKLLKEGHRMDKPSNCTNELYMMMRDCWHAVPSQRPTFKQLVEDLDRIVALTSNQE
Sequence of FGFR3, construct: aa397-end, human (P22607 397-806, looked up): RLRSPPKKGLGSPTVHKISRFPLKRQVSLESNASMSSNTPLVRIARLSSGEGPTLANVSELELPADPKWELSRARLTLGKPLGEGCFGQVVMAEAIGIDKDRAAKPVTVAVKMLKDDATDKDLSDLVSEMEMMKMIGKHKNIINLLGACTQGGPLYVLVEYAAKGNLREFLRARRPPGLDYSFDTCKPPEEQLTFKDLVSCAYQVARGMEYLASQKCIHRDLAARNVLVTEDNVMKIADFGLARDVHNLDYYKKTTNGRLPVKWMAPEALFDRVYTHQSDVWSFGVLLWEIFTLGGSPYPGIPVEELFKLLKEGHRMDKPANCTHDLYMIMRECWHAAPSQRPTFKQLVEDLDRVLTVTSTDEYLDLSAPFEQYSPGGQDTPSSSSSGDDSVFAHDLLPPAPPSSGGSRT

FGFR1, construct: aa456-765, human (from UniProt P11362)
relative phosphorylation
Details	at +1	at +2	at +3	at +4	at +5	at -1	at -2	at -3	at -4	at -5
A fixed	1.01	0.593	0.546	0.853	0.912	0.836	0.925	0.939	1.11	1.05
D fixed	0.332	0.728	0.463	0.791	1.17	2.09	1.05	1.22	1.02	1.05
E fixed	0.68	1.06	0.407	0.769	1.06	1.29	1.17	1.23	1.09	0.859
F fixed	1.81	1.68	1.57	1.12	0.897	1.06	0.673	0.814	0.905	0.897
G fixed	0.332	0.406	0.514	1.27	1.22	0.557	1.19	1.08	1.22	1.12
H fixed	1.62	0.924	0.968	1.06	0.867	1.17	1.17	1.03	1.05	1.05
I fixed	1.66	1.14	2.43	1.13	0.744	1.3	0.907	0.816	0.823	0.921
K fixed	0.379	0.581	0.302	0.866	0.903	0.461	1.03	1.01	1.02	1.12
L fixed	0.938	1.35	1.79	1.13	0.737	0.921	0.829	0.69	0.769	0.891
M fixed	1.07	1.07	1.65	0.981	0.822	0.758	0.826	0.917	0.803	0.95
N fixed	0.428	0.954	0.415	0.758	0.999	1.35	1.25	1.34	1.02	1.24
P fixed	1.13	0.702	0.621	1.3	1.72	0.954	0.919	0.962	1.22	0.954
Q fixed	0.794	0.963	0.796	0.955	0.999	1.09	1.24	1.05	1.2	1.19
R fixed	0.494	0.669	0.494	0.914	1.05	0.354	0.969	0.95	1.04	1.29
S fixed	0.888	0.818	0.6	1.01	1.14	0.678	1.2	1.19	0.918	0.988
T fixed	0.98	0.762	0.774	0.836	1.02	0.77	0.995	0.916	0.768	0.741
V fixed	1.67	1.09	1.78	1	0.84	1.21	0.9	0.84	0.789	0.753
W fixed	1.78	2.51	1.87	1.26	0.908	1.15	0.748	1.01	1.23	0.949
pThr fixed	0.496	0.942	0.298	0.559	1.03	0.884	0.846	0.938	0.771	0.696
pTyr fixed	2.43	2.39	0.408	0.758	0.987	2.02	1.13	1.06	1.07	0.764

FGFR2, construct: aa285-end, human (from UniProt P21802)
relative phosphorylation
Details	at +1	at +2	at +3	at +4	at +5	at -1	at -2	at -3	at -4	at -5
A fixed	0.967	0.586	0.554	0.848	1	0.772	0.949	0.935	1.13	0.929
D fixed	0.362	0.991	0.671	0.93	1.01	2.28	1.18	1.26	1	1.09
E fixed	0.774	1.54	0.515	1.11	0.972	1.41	1.42	1.53	1.14	0.89
F fixed	1.69	1.57	1.53	1.06	0.992	0.988	0.642	0.852	0.949	0.962
G fixed	0.345	0.353	0.495	0.981	1.32	0.506	1.09	1.09	1.2	1.27
H fixed	1.84	0.971	0.988	1.14	0.943	1.51	1.28	1.16	1.2	1.21
I fixed	1.33	0.926	1.89	0.883	0.836	1.23	0.679	0.697	0.773	0.806
K fixed	0.55	0.524	0.303	0.868	0.819	0.5	1.19	1.01	1.13	1.33
L fixed	0.929	1.24	1.96	0.885	0.927	0.94	0.78	0.685	0.81	0.824
M fixed	1.06	1.41	1.87	1.01	0.979	0.689	0.674	0.774	0.812	0.842
N fixed	0.472	1.01	0.488	0.865	0.987	1.3	1.14	1.28	0.939	1.05
P fixed	1.11	0.612	0.666	1.16	1.47	0.815	1.08	0.924	1.17	1.01
Q fixed	0.953	0.78	0.776	0.97	0.832	1.04	1.12	0.892	1.03	0.952
R fixed	0.706	0.758	0.551	1.39	0.884	0.495	1.24	1.12	1.26	1.34
S fixed	0.733	0.665	0.545	0.966	1.02	0.681	1.14	1.13	0.854	0.939
T fixed	0.901	0.827	0.737	0.918	0.983	0.805	0.939	1.08	0.721	0.883
V fixed	1.55	1.02	1.62	0.872	1.05	0.97	0.752	0.662	0.757	0.714
W fixed	1.72	2.22	1.84	1.14	0.977	1.08	0.697	0.912	1.12	0.969
pThr fixed	0.729	1.43	0.766	0.731	0.782	1.25	1	1.1	0.883	0.849
pTyr fixed	2.75	2.82	0.616	1.15	0.835	2.48	1.25	1.2	1.1	0.913

FGFR3, construct: aa397-end, human (from UniProt P22607)
relative phosphorylation
Details	at +1	at +2	at +3	at +4	at +5	at -1	at -2	at -3	at -4	at -5
A fixed	0.858	0.5	0.465	0.794	1.13	0.737	0.867	0.899	1.1	0.986
D fixed	0.4	1.08	0.618	1.07	1.09	2.51	1.3	1.51	1.22	1.19
E fixed	0.764	1.5	0.479	1.15	0.944	1.71	1.58	1.73	1.42	1.01
F fixed	1.96	1.73	1.58	1.17	1.08	0.94	0.733	0.807	0.933	0.929
G fixed	0.32	0.27	0.378	0.913	1.22	0.452	1.05	0.939	1.25	1.15
H fixed	1.7	0.959	0.873	1.1	0.962	1.47	1.2	1.17	1.07	1.2
I fixed	1.19	0.857	2.07	0.872	0.763	1.1	0.57	0.533	0.738	0.651
K fixed	0.452	0.502	0.297	0.913	0.753	0.438	1.05	0.976	0.935	1.27
L fixed	1.01	1.46	2.18	0.962	0.881	1.05	0.863	0.663	0.759	0.75
M fixed	1.17	1.46	2.26	1.06	1.05	0.766	0.761	0.747	0.901	0.854
N fixed	0.458	1.01	0.416	0.828	0.943	1.33	1.24	1.35	0.924	1.15
P fixed	1.1	0.528	0.562	1.13	1.22	0.786	0.951	0.904	1.2	1.08
Q fixed	0.865	0.85	0.68	1.05	0.923	0.896	1.14	1.01	1.1	1.01
R fixed	0.577	0.607	0.428	0.953	0.814	0.396	1.1	1.04	1.01	1.27
S fixed	0.709	0.566	0.481	0.931	1.07	0.614	1.09	1.17	0.867	0.971
T fixed	0.867	0.712	0.604	0.814	1.03	0.797	1.01	0.946	0.704	0.82
V fixed	1.59	0.952	1.61	0.948	0.939	0.885	0.732	0.595	0.7	0.682
W fixed	2	2.47	2.02	1.34	1.18	1.14	0.767	1.02	1.17	1.02
pThr fixed	0.874	1.88	0.666	0.864	0.943	1.61	1.28	1.44	1.2	1.16
pTyr fixed	3.07	3.28	0.631	0.962	1	3.24	1.85	1.83	1.55	1.31
